The record followed here is patent publication US20210388105A1 (ELPISCIENCE SUZHOU BIOPHARMA, published 2021).

Broadly, the Kd is a measure of binding affinity in units of concentration. A low value points to a tighter complex. What is called EC50 (read off the curve) is the concentration giving half of the maximal effect. A low value points to a more potent agent. In general, EC50 refers to the midpoint of the concentration-response curve.

The target in experiment [1] is T1, human CD39 (protein; form not stated) (human, UniProt P49961 38-478, limits assumed).
T1 construct: also called ENTPD1; ENTPDase 1
T1 sequence: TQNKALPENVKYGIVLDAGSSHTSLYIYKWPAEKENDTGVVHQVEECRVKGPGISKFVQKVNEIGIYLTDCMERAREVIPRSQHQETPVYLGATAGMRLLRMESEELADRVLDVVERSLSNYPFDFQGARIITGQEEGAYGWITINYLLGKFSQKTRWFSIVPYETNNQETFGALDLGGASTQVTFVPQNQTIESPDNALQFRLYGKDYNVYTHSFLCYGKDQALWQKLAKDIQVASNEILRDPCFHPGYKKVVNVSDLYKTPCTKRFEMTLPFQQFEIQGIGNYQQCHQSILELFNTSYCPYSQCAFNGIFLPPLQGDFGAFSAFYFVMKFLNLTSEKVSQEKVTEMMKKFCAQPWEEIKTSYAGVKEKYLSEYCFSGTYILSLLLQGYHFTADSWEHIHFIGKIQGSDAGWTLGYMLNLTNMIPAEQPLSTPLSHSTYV
Put plainly: Octet (BLI).

Experiment [2] concerns the target T2, ENTPD2 protein (Homo sapiens (Human), UniProt Q9Y5L3 29-462).
T2 construct: also called CD39L1; ENTPDase 2
T2 sequence: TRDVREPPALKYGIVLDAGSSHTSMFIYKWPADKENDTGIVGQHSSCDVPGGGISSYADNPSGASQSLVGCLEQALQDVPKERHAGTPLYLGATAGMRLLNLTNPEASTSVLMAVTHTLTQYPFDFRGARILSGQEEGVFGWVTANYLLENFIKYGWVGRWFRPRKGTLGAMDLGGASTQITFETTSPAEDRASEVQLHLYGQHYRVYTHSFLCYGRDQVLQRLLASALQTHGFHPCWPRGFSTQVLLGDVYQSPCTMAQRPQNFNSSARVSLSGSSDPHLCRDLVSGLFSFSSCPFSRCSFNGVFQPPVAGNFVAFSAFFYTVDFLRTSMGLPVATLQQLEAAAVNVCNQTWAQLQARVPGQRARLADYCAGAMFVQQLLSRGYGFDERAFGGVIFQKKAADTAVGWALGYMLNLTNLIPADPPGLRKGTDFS
Put plainly: ELISA on coated ENTPD2 protein, anti-hIgG-HRP, OD450. On the procedure:
(§1) Binding specificity of the purified humanized antibody hu23.H5L5 against ENTPDase family members was detected by ELISA assay. Briefly, ENTPD1 (i.e. CD39) and ENTPD 2/3/5/6 proteins were coated on 96-well ELISA plates at 4° C. overnight, next day the ELISA plates were washed and blocked using blocking buffer (1% BSA in PBS with 0.05% Tween20) 200 μL/well for 2 hours. Then hu23.H5L5 gradients were duplicated into the wells and stained with anti-hIgG-HRP. After plate washing, the plates were developed with TMB substrate and stopped by 2N HCl. The OD450 were recorded using plate reader and platted by Graphpad Prism.

Experiment [3] concerns the target T3, ENTPD3 protein (Homo sapiens (Human), UniProt O75355 44-485).
T3 construct: also called CD39L3; ENTPDase 3
T3 sequence: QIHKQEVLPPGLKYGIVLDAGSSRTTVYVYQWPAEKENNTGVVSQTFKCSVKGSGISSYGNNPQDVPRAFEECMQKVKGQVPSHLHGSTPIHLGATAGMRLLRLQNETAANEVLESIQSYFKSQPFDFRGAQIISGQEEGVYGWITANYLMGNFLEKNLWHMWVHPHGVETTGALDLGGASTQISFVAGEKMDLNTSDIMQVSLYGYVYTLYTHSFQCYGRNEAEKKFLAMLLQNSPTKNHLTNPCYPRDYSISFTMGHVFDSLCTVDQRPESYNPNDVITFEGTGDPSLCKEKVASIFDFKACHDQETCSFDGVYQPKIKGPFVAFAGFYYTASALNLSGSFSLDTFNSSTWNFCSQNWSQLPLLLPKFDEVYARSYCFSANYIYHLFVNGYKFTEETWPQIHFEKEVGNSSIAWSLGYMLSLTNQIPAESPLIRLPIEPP
Put plainly: ELISA on coated ENTPD3 protein, anti-hIgG-HRP, OD450. On the procedure: as §1

For experiment [4], the target named is T1, human CD39 (protein; form not stated). Put plainly: ELISA on coated ENTPD1 (CD39) protein, anti-hIgG-HRP, OD450. On the procedure: as §1
Experiment [5] has as its target T4, human CD39 (full length, on cells) (human, UniProt P49961 1-510).
T4 construct: Recombinant on CHOK1-hCD39 cells or natural on SK-MEL-28, SK-MEL-5 and MOLP-8 cells; the cell line is named under assay; also called hCD39; ENTPD1
T4 sequence: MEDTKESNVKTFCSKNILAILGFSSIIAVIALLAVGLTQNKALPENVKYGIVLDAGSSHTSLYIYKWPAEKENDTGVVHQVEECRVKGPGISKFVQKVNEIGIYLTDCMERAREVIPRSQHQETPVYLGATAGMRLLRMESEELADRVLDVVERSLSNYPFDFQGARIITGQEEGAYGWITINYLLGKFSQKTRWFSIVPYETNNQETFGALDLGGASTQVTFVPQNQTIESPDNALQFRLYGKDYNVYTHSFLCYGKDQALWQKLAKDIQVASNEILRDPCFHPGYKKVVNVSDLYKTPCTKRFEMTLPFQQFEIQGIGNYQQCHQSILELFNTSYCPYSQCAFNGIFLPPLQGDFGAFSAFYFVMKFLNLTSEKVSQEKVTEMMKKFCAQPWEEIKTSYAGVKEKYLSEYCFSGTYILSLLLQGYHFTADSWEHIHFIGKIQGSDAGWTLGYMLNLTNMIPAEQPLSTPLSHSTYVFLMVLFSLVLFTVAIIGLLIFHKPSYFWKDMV
In words: FACS, MOLP-8 cells. On the procedure:
Similarly, human CD39 expressing cells SK-MEL-5, SK-MEL-28 or MOLP-8, were incubated with a gradient concentration of anti-CD39 antibodies for 30 minutes at 4° C. Cells were washed 3 times using FACS buffer and next incubated with fluorescence labelled secondary antibody (goat-anti-mouse IgG or goat anti-human IgG) for 30 minutes at 4° C. Cells were washed 3 times and then re-suspended in FACS buffer and analyzed by flow cytometry analysis on BD Celesta. Data plotted and analyzed using GraphPad Prism 8.02.
The binding affinity of the humanized antibodies for c23 was determined by FACS, using similar methods as described in Example 3.2. The c23 humanized antibody clones showing good binding affinity are listed in below Table 19 and Table 20, and also shown in FIGS. 7A, 7B and FIG. 8. EC₅₀ is the concentration of the indicated antibodies to reach 50% of the signal in this assay.
(In general: In flow cytometry, cells or beads pass a laser one at a time.)

B1: mAb14 (antibody, V domains shown)
VH: EVKLEESGGGLVQPGGSMKLSCVASGFTFSKYWMNWVRQSPEKGLEWVAEIRLKSNKYGTHYAESVKGRFTISRDDSKNNVYLQMNNLRPEDTGIYYCTTQLDLYWFFDVWGAGTTVTVSS
VL: DIVMTQSPAILSVTPGDRVSLSCRASQSISDYLHWYQQKSHESPRLLIKYASQSISGIPSRFSGSGSGSNFTLSINSVEPEDVGVYFCQNGHSLPLTFGAGTKLELR
notes: mouse hybridoma antibody
Consider B1, for which, in experiment [1], the affinity, expressed as Kd, was 0.24 nM.

B2: hu23.H5L5 (antibody, V domains shown)
VH: QVQLVQSGAEVKKPGASVKVSCKASGYNLKDTFLHWVRQAPGQGLEWMGRIDPANGNIKYDPKFQGRVTITADTSANTAYMELISLRSEDTAVYYCANSPYYYGSGYRIFDVWGQGTTVTVSS
VL: QIVLTQSPATLSLSPGERATLSCSAFSSVNYMHWYQQKPGQAPRLLIYTTSNLASGIPTRFSGSGSGTSYTLTISSLEPEDFAVYYCQQRSTYPFTFGQGTKLEIK
notes: humanized c23
As for B2, the binding result in experiment [2] and in experiment [3] was “no binding (tested: about 66 nM)” throughout. In addition, the “EC50 (read off the curve)” value in experiment [4] was ~4 nM. Besides, in experiment [5], the EC50 worked out at 0.177 nM.
